The labels stand for the following.
B1: CSTF3 (parent)
chain: YVPEKVKKAEKKLEENPYDLDAWS
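Also: lentivirally expressed fusions sorted by FACS into six bins by GFP to DsRed ratio, PSI derived from sequencing read proportions per bin multiplied by bin number.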

In this series the parent is B1. The series can be described thus: protein stability index of a GFP-peptide fusion (GPS, HEK-293T) (PSI 1-6); higher = more stable. Conditions: c terminus: a fixed tail appended.
As to YVPEKVKKAELKLEENPYDLDAWS [K11L], the protein stability index was 2.31.
For YVPEKVKKAEFKLEENPYDLDAWS [K11F], the protein stability index came out at 2.06.
Under YVPEKVKKAEGKLEENPYDLDAWS [K11G] stands 2.01.
Under YVPEKVKKAPKKLEENPYDLDAWS [E10P] stands 2; under YVPEKVKKAMKKLEENPYDLDAWS [E10M], 1.55; under YVPEKVKKAIKKLEENPYDLDAWS [E10I], 1.86.
Under YVPEKVKKAYKKLEENPYDLDAWS [E10Y] stands 2.86; under YVPEKVKKAVKKLEENPYDLDAWS [E10V], 2.18; under YVPEKVKKAHKKLEENPYDLDAWS [E10H], 3.67.
Take YVPEKVKKADKKLEENPYDLDAWS [E10D]: the protein stability index worked out at 1.92.
Under YVPEKVKKAFKKLEENPYDLDAWS [E10F] stands 2.32; under YVPEKVKKAKKKLEENPYDLDAWS [E10K], 3.68.
Under YVPEKVKKACKKLEENPYDLDAWS [E10C] stands 3.32.
YVPEKVKKAGKKLEENPYDLDAWS [E10G]: the protein stability index was determined as 2.97.
Under YVPEKVKKANKKLEENPYDLDAWS [E10N] stands 3.24.
For YVPEKVKKATKKLEENPYDLDAWS [E10T], the protein stability index worked out at 1.74.
YVPEKVKKAAKKLEENPYDLDAWS [E10A]: the protein stability index was found to be 1.93.
As to YVPEKVKKAWKKLEENPYDLDAWS [E10W], the protein stability index turned out to be 1.98.
YVPEKVKKAQKKLEENPYDLDAWS [E10Q]: the protein stability index is 3.08.
Under YVPEKVKKARKKLEENPYDLDAWS [E10R] stands 2.63.
Under YVPEKVKKASKKLEENPYDLDAWS [E10S] stands 2.56; under YVPEKVKKHEKKLEENPYDLDAWS [A9H], 2.85; under YVPEKVKKEEKKLEENPYDLDAWS [A9E], 1.96.
Under YVPEKVKKDEKKLEENPYDLDAWS [A9D] stands 1.65; under YVPEKVKKLEKKLEENPYDLDAWS [A9L], 2.32.
On to YVPEKVKKCEKKLEENPYDLDAWS [A9C], for which the protein stability index was determined as 2.11.
Under YVPEKVKKGEKKLEENPYDLDAWS [A9G] stands 3.46; under YVPEKVKKTEKKLEENPYDLDAWS [A9T], 2.66; under YVPEKVKKVEKKLEENPYDLDAWS [A9V], 2.64.
Take YVPEKVKKIEKKLEENPYDLDAWS [A9I]: the protein stability index was determined as 2.59.
Under YVPEKVKKWEKKLEENPYDLDAWS [A9W] stands 3.31; under YVPEKVKKQEKKLEENPYDLDAWS [A9Q], 2.11; under YVPEKVKKREKKLEENPYDLDAWS [A9R], 3.47.
As to YVPEKVKKMEKKLEENPYDLDAWS [A9M], the protein stability index came out at 2.16.
Under YVPEKVKKYEKKLEENPYDLDAWS [A9Y] stands 3.21; under YVPEKVKKKEKKLEENPYDLDAWS [A9K], 2.59; under YVPEKVKKPEKKLEENPYDLDAWS [A9P], 4.02.
Under YVPEKVKKFEKKLEENPYDLDAWS [A9F] stands 3.1; under YVPEKVKKSEKKLEENPYDLDAWS [A9S], 2.27; under YVCEKVKKAEKKLEENPYDLDAWS [P3C], 2.46.
Under YVREKVKKAEKKLEENPYDLDAWS [P3R] stands 2.44; under YVWEKVKKAEKKLEENPYDLDAWS [P3W], 1.76; under YVEEKVKKAEKKLEENPYDLDAWS [P3E], 2.7.
Regarding YVMEKVKKAEKKLEENPYDLDAWS [P3M], the protein stability index amounted to 1.79.
Under YVTEKVKKAEKKLEENPYDLDAWS [P3T] stands 2.35.
As for YVHEKVKKAEKKLEENPYDLDAWS [P3H], the protein stability index was 2.47.
Under YVDEKVKKAEKKLEENPYDLDAWS [P3D] stands 2.69; under YVSEKVKKAEKKLEENPYDLDAWS [P3S], 2.23; under YVFEKVKKAEKKLEENPYDLDAWS [P3F], 1.89.
Under YVNEKVKKAEKKLEENPYDLDAWS [P3N] stands 2.12.
Under YVAEKVKKAEKKLEENPYDLDAWS [P3A] stands 2.27; under YVVEKVKKAEKKLEENPYDLDAWS [P3V], 1.97; under YVKEKVKKAEKKLEENPYDLDAWS [P3K], 2.15.
In the case of YVGEKVKKAEKKLEENPYDLDAWS [P3G], the protein stability index came to 2.28.
Take YVYEKVKKAEKKLEENPYDLDAWS [P3Y]: the protein stability index was 3.21.
Consider YVLEKVKKAEKKLEENPYDLDAWS [P3L], for which the protein stability index worked out at 1.74.
As for YVIEKVKKAEKKLEENPYDLDAWS [P3I], the protein stability index stood at 1.99.
Under YVQEKVKKAEKKLEENPYDLDAWS [P3Q] stands 1.89; under YVPQKVKKAEKKLEENPYDLDAWS [E4Q], 3.41.
For YVPNKVKKAEKKLEENPYDLDAWS [E4N], the protein stability index turned out to be 2.19.
Under YVPSKVKKAEKKLEENPYDLDAWS [E4S] stands 1.62.
Under YVPMKVKKAEKKLEENPYDLDAWS [E4M] stands 1.9.
Under YVPTKVKKAEKKLEENPYDLDAWS [E4T] stands 2.56.
On to YVPAKVKKAEKKLEENPYDLDAWS [E4A], for which the protein stability index came out at 3.03.
Under YVPVKVKKAEKKLEENPYDLDAWS [E4V] stands 2.69; under YVPWKVKKAEKKLEENPYDLDAWS [E4W], 2.28; under YVPHKVKKAEKKLEENPYDLDAWS [E4H], 2.44.
Under YVPFKVKKAEKKLEENPYDLDAWS [E4F] stands 2.49.
YVPGKVKKAEKKLEENPYDLDAWS [E4G]: the protein stability index was determined as 2.58.
For YVPRKVKKAEKKLEENPYDLDAWS [E4R], the protein stability index is 2.8.
Under YVPCKVKKAEKKLEENPYDLDAWS [E4C] stands 2.43.
Under YVPIKVKKAEKKLEENPYDLDAWS [E4I] stands 2.8; under YVPPKVKKAEKKLEENPYDLDAWS [E4P], 2.3.
Under YVPYKVKKAEKKLEENPYDLDAWS [E4Y] stands 3.67; under YVPKKVKKAEKKLEENPYDLDAWS [E4K], 3.35.
As to YVPELVKKAEKKLEENPYDLDAWS [K5L], the protein stability index was found to be 2.07.
Under YVPEIVKKAEKKLEENPYDLDAWS [K5I] stands 2.95; under YVPEQVKKAEKKLEENPYDLDAWS [K5Q], 2.73.
Under YVPEVVKKAEKKLEENPYDLDAWS [K5V] stands 2.32; under YVPEDVKKAEKKLEENPYDLDAWS [K5D], 1.9; under YVPEHVKKAEKKLEENPYDLDAWS [K5H], 2.28.
As for YVPESVKKAEKKLEENPYDLDAWS [K5S], the protein stability index worked out at 3.44.
As to YVPERVKKAEKKLEENPYDLDAWS [K5R], the protein stability index amounted to 2.72.
Under YVPEFVKKAEKKLEENPYDLDAWS [K5F] stands 2.19; under YVPEYVKKAEKKLEENPYDLDAWS [K5Y], 3.04.
Under YVPEWVKKAEKKLEENPYDLDAWS [K5W] stands 2.45; under YVPEMVKKAEKKLEENPYDLDAWS [K5M], 2.04.
YVPETVKKAEKKLEENPYDLDAWS [K5T]: the protein stability index stood at 2.93.
Under YVPENVKKAEKKLEENPYDLDAWS [K5N] stands 3.5; under YVPEGVKKAEKKLEENPYDLDAWS [K5G], 2.25; under YVPEPVKKAEKKLEENPYDLDAWS [K5P], 2.55.
Turning to YVPEAVKKAEKKLEENPYDLDAWS [K5A], the protein stability index amounted to 1.62.
Under YVPECVKKAEKKLEENPYDLDAWS [K5C] stands 2.71; under YVPEEVKKAEKKLEENPYDLDAWS [K5E], 1.77.

For the origin of these results see the supplement of paper PMC10567573.
